Source: patent publication US20250263462A1 (US Dept. of Health and Human Services, published 2025)

What was measured:
Assay in all cases: cell-based or functional assay
[1] = target: KRAS G12V 10-mer peptide … (SEQ ID NO: 33) presented by HLA-A11 on pulsed cells (human, UniProt A*11:01)
[2] = target: KRAS G12D 9-mer peptide KRAS7-15 … (SEQ ID NO: 124) presented by HLA-A11 on pulsed cells (human, UniProt A*11:01)
[3] = target: T1, WT KRAS 10-mer peptide (SEQ ID NO: 30) presented by HLA-A11 on pulsed cells (human, UniProt A*11:01)
[4] = target: T2, KRAS G12D 9-mer peptide KRAS8-16 … (SEQ ID NO: 34) presented by HLA-A11 on pulsed cells (human, UniProt A*11:01)
[5] = target: HLA-A11 on COS7/A11 cells expressing the KRAS G12D minigene (23-mer SEQ ID NO: 119) (human, UniProt A*11:01)
[6] = target: HLA-A11 on COS7/A11 cells expressing the WT KRAS minigene (23-mer SEQ ID NO: 118) (human, UniProt A*11:01)
[7] = target: HLA-A11 on COS7/A11 cells expressing the KRAS G12V minigene (23-mer SEQ ID NO: 120) (human, UniProt A*11:01)
[8] = target: WT KRAS 9-mer peptide (SEQ ID NO: 31) presented by HLA-A11 on pulsed cells (human, UniProt A*11:01)
[9] = target: T1, WT KRAS 10-mer peptide (SEQ ID NO: 30) …; remark: listed apart in the source
[10] = target: T2, KRAS G12D 9-mer peptide KRAS8-16 … (SEQ …); remark: listed apart in the source

B1: TRAV12N-3*01/BV4*01 murine anti-KRAS G12D TCR (SEQ ID NOs: 11 and 12) (TCR, V domains shown)
V domain 1: GDSVTQTEGLVTLTEGLPVMLNCTYQTIYSNPFLFWYVQHLNESPRLLLKSFTDNKRTEHQGFHATLHKSSSSFHLQKSSAQLSDSALYYCALRGNAGAKLTFGGGTRLTVRP
V domain 2: ETAVFQTPNYHVTQVGNEVSFNCKQTLGHDTMYWYKQDSKKLLKIMFSYNNKQLIVNETVPRRFSPQSSDKAHLNLRIKSVEPEDSAVYLCASSSRDWSAETLYFGSGTRLTVLE
IFN-γ, PBL + COS7/A11 pulsed at 1 × 10^-6 M [1]: 97 pg/mL
IFN-γ, PBL + COS7/A11 pulsed at 1 × 10^-7 M [1]: 83 pg/mL
IFN-γ, PBL + COS7/A11 pulsed at 1 × 10^-8 M [1]: 86 pg/mL
IFN-γ, PBL + COS7/A11 pulsed at 1 × 10^-9 M [1]: 88 pg/mL
IFN-γ, PBL + COS7/A11 pulsed at 1 × 10^-10 M [1]: 88 pg/mL
IFN-γ, PBL + COS7/A11 pulsed at 1 × 10^-11 M [1]: 86 pg/mL
IFN-γ, PBL + COS7/A11 pulsed at 1 × 10^-12 M [1]: 96 pg/mL
IFN-γ, PBL + COS7/A11 pulsed at 1 × 10^-13 M [1]: 97 pg/mL
IFN-γ, PBL + COS7/A11 pulsed at 1 × 10^-6 M [2]: 87 pg/mL
IFN-γ, PBL + COS7/A11 pulsed at 1 × 10^-7 M [2]: 91 pg/mL
IFN-γ, PBL + COS7/A11 pulsed at 1 × 10^-8 M [2]: 72 pg/mL
IFN-γ, PBL + COS7/A11 pulsed at 1 × 10^-9 M [2]: 90 pg/mL
IFN-γ, PBL + COS7/A11 pulsed at 1 × 10^-10 M [2]: 90 pg/mL
IFN-γ, PBL + COS7/A11 pulsed at 1 × 10^-11 M [2]: 95 pg/mL
IFN-γ, PBL + COS7/A11 pulsed at 1 × 10^-12 M [2]: 83 pg/mL
IFN-γ, PBL + COS7/A11 pulsed at 1 × 10^-13 M [2]: 112 pg/mL
IFN-γ, PBL + COS7/A11 pulsed at 1 × 10^-6 M [3]: 78 pg/mL
IFN-γ, PBL + COS7/A11 pulsed at 1 × 10^-7 M [3]: 88 pg/mL
IFN-γ, PBL + COS7/A11 pulsed at 1 × 10^-8 M [3]: 102 pg/mL
IFN-γ, PBL + COS7/A11 pulsed at 1 × 10^-9 M [3]: 99 pg/mL
IFN-γ, PBL + COS7/A11 pulsed at 1 × 10^-10 M [3]: 95 pg/mL
IFN-γ, PBL + COS7/A11 pulsed at 1 × 10^-11 M [3]: 86 pg/mL
IFN-γ, PBL + COS7/A11 pulsed at 1 × 10^-12 M [3]: 102 pg/mL
IFN-γ, PBL + COS7/A11 pulsed at 1 × 10^-13 M [3]: 98 pg/mL
IFN-γ, PBL + COS7/A11 pulsed at 1 × 10^-6 M [4]: 136 pg/mL
IFN-γ, PBL + COS7/A11 pulsed at 1 × 10^-7 M [4]: 95 pg/mL
IFN-γ, PBL + COS7/A11 pulsed at 1 × 10^-8 M [4]: 99 pg/mL
IFN-γ, PBL + COS7/A11 pulsed at 1 × 10^-9 M [4]: 90 pg/mL
IFN-γ, PBL + COS7/A11 pulsed at 1 × 10^-10 M [4]: 85 pg/mL
IFN-γ, PBL + COS7/A11 pulsed at 1 × 10^-11 M [4]: 85 pg/mL
IFN-γ, PBL + COS7/A11 pulsed at 1 × 10^-12 M [4]: 94 pg/mL
IFN-γ, PBL + COS7/A11 pulsed at 1 × 10^-13 M [4]: 115 pg/mL
IFN-γ, PBL + COS/A11 minigene transfectant [5]: > 10000 pg/mL
IFN-γ, PBL + COS/A11 minigene transfectant [6]: 130 pg/mL
IFN-γ, PBL + COS/A11 minigene transfectant [7]: 126 pg/mL
IFN-γ, PBL + Cos7/A11 pulsed at 10^-6 M [8]: 90 pg/mL
IFN-γ, PBL + Cos7/A11 pulsed at 10^-7 M [8]: 96 pg/mL
IFN-γ, PBL + Cos7/A11 pulsed at 10^-8 M [8]: 95 pg/mL
IFN-γ, PBL + Cos7/A11 pulsed at 10^-9 M [8]: 88 pg/mL
IFN-γ, PBL + Cos7/A11 pulsed at 10^-10 M [8]: 95 pg/mL
IFN-γ, PBL + Cos7/A11 pulsed at 10^-11 M [8]: 84 pg/mL
IFN-γ, PBL + Cos7/A11 pulsed at 10^-12 M [8]: 105 pg/mL
IFN-γ, PBL + Cos7/A11 pulsed at 10^-13 M [8]: 103 pg/mL
IFN-γ, PBL + Cos7/A11 pulsed at 10^-6 M [9]: 82 pg/mL
IFN-γ, PBL + Cos7/A11 pulsed at 10^-7 M [9]: 77 pg/mL
IFN-γ, PBL + Cos7/A11 pulsed at 10^-8 M [9]: 85 pg/mL
IFN-γ, PBL + Cos7/A11 pulsed at 10^-9 M [9]: 102 pg/mL
IFN-γ, PBL + Cos7/A11 pulsed at 10^-10 M [9]: 88 pg/mL
IFN-γ, PBL + Cos7/A11 pulsed at 10^-11 M [9]: 81 pg/mL
IFN-γ, PBL + Cos7/A11 pulsed at 10^-12 M [9]: 76 pg/mL
IFN-γ, PBL + Cos7/A11 pulsed at 10^-13 M [9]: 92 pg/mL
IFN-γ, PBL + Cos7/A11 pulsed at 10^-6 M [10]: 125 pg/mL
IFN-γ, PBL + Cos7/A11 pulsed at 10^-7 M [10]: 86 pg/mL
IFN-γ, PBL + Cos7/A11 pulsed at 10^-8 M [10]: 90 pg/mL
IFN-γ, PBL + Cos7/A11 pulsed at 10^-9 M [10]: 92 pg/mL
IFN-γ, PBL + Cos7/A11 pulsed at 10^-10 M [10]: 95 pg/mL
IFN-γ, PBL + Cos7/A11 pulsed at 10^-11 M [10]: 88 pg/mL
IFN-γ, PBL + Cos7/A11 pulsed at 10^-12 M [10]: 91 pg/mL
IFN-γ, PBL + Cos7/A11 pulsed at 10^-13 M [10]: 84 pg/mL
